Laboratory results published in patent US20220074941A1, “HSP90 COMBINATION THERAPY” (Sloan-Kettering Institute for Cancer Research, priority 2011, published 2022).

B1: PLBD1 (protein, UniProt Q6P4A8 39-553, looked up)
Phospholipase B-like 1: GVYYATAYWMPAEKTVQVKNVMDKNGDAYGFYNNSVKTTGWGILEIRAGYGSQTLSNEIIMFVAGFLEGYLTAPHMNDHYTNLYPQLITKPSIMDKVQDFMEKQDKWTRKNIKEYKTDSFWRHTGYVMAQIDGLYVGAKKRAILEGTKPMTLFQIQFLNSVGDLLDLIPSLSPTKNGSLKVFKRWDMGHCSALIKVLPGFENILFAHSSWYTYAAMLRIYKHWDFNVIDKDTSSSRLSFSSYPGFLESLDDFYILSSGLILLQTTNSVFNKTLLKQVIPETLLSWQRVRVANMMADSGKRWADIFSKYNSGTYNNQYMVLDLKKVKLNHSLDKGTLYIVEQIPTYVEYSEQTDVLRKGYWPSYNVPFHEKIYNWSGYPLLVQKLGLDYSYDLAPRAKIFRRDQGKVTDTASMKYIMRYNNYKKDPYSRGDPCNTICCREDLNSPNPSPGGCYDTKVADIYLASQYTSYAISGPTVQGGLPVFRWDRFNKTLHQGMPEVYNFDFITMKPILKLDIK
B2: ZBED1 (protein, UniProt O96006 1-694, looked up)
E3 SUMO-protein ligase ZBED1: MENKSLESSQTDLKLVAHPRAKSKVWKYFGFDTNAEGCILQWKKIYCRICMAQIAYSGNTSNLSYHLEKNHPEEFCEFVKSNTEQMREAFATAFSKLKPESSQQPGQDALAVKAGHGYDSKKQQELTAAVLGLICEGLYPASIVDEPTFKVLLKTADPRYELPSRKYISTKAIPEKYGAVREVILKELAEATWCGISTDMWRSENQNRAYVTLAAHFLGLGAPNCLSMGSRCLKTFEVPEENTAETITRVLYEVFIEWGISAKVFGATTNYGKDIVKACSLLDVAVHMPCLGHTFNAGIQQAFQLPKLGALLSRCRKLVEYFQQSAVAMYMLYEKQKQQNVAHCMLVSNRVSWWGSTLAMLQRLKEQQFVIAGVLVEDSNNHHLMLEASEWATIEGLVELLQPFKQVAEMLSASRYPTISMVKPLLHMLLNTTLNIKETDSKELSMAKEVIAKELSKTYQETPEIDMFLNVATFLDPRYKRLPFLSAFERQQVENRVVEEAKGLLDKVKDGGYRPAEDKIFPVPEEPPVKKLMRTSTPPPASVINNMLAEIFCQTGGVEDQEEWHAQVVEELSNFKSQKVLGLNEDPLKWWSDRLALFPLLPKVLQKYWCVTATRVAPERLFGSAANVVSAKRNRLAPAHVDEQVFLYENARSGAEAEPEDQDEGEWGLDQEQVFSLGDGVSGGFFGIRDSSFL
B3: PSD4 (protein, UniProt Q8NDX1 1-1056, looked up)
PH and SEC7 domain-containing …: MMGDYRLPDHPQPMEILNLYLGDSLEPHPGECPRETCSHEDPPEPFEEQTWATDPPEPTRQNVPPWGSGVELTHLGSWVHQDGLEPCQEQTRATDPPESTRQDAPPWGSGVELTHLGSPSAQREHRQNTASPGSPVNSHLPGSPKQNRSTSTQVVFWAGILQAQMCVLDLEEELEKTEGLKAGLKCCLPTPPVDLPGDTGLHSSPPENEDSGEDSSEPEGEGQAWLREGTPDSSPQWGAEEESMFFSNPLFLASPCSENSASGECFSWGASDSHAGVRTGPESPATLEPPLPEDTVLWELESEPDLGDGAAISGHCTPPFPVPIYKPHSICWASVAAAEGAPAAPPGHGESEGDRLGPAPSAAPCVDEALTWESGCVGSDLGPAAHPVQPWASLSPEGWQRGGPFWPQVTLNSQDRDEREGGHPQESLPCTLAPCPWRSPASSPEPSSPESESRGPGPRPSPASSQEGSPQLQHHSSGILPKWTLDASQSSLLETDGEQPSSLKKKEAGEAPKPGEEVKSEGTARPAETGDVQPDIHLTSAEHENLRTPMNSSWLPGSPMPQAQSPEEGQRPPAGDKLANGVRNNKVAWNLASRLYRLEGFRKSEVAAYLQKNNDFSRAVAEEYLSFFQFGGQSLDRALRSFLQALVLSGETQERERILYQFSRRFHHCNPGIFPSVDSVHTLTCAIMLLNTDLHGQNIGKSMSCQEFITNLNGLRDGGNFPKELLKALYWSIRSEKLEWAVDEEDTARPEKAQPSLPAGKMSKPFLQLAQDPTVPTYKQGILARKMHQDADGKKTPWGKRGWKMFHTLLRGMVLYFLKQGEDHCLEGESLVGQMVDEPVGVHHSLATPATHYTKKPHVFQLRTADWRLYLFQAPTAKEMSSWIARINLAAATHSAPPFPAAVGSQRRFVRPILPVGPAQSSLEEQHRSHENCLDAAADDLLDLQRNLPERRGRGRELEEHRLRKEYLEYEKTRYETYVQLLVARLHCPSDALDLWEEQLGREAGGTREPKLSLKKSHSSPSLHQDEAPTTAKVKRNISERRTYRKIIPKRNRNQL
B4: CT45A5 (protein, UniProt P0DMU8 1-189, looked up)
Cancer/testis antigen family …: MTDKTEKVAVDPETVFKRPRECDSPSYQKRQRMALLARKQGAGDSLIAGSAMSKEKKLMTGHAIPPSQLDSQIDDFTGFSKDGMMQKPGSNAPVGGNVTSSFSGDDLECRETASSPKSQREINADIKRKLVKELRCVGQKYEKIFEMLEGVQGPTAVRKRFFESIIKEAARCMRRDFVKHLKKKLKRMI
B5: WASF2 (protein, UniProt Q9Y6W5 1-498, looked up)
Actin-binding protein WASF2: MPLVTRNIEPRHLCRQTLPSVRSELECVTNITLANVIRQLGSLSKYAEDIFGELFTQANTFASRVSSLAERVDRLQVKVTQLDPKEEEVSLQGINTRKAFRSSTIQDQKLFDRNSLPVPVLETYNTCDTPPPLNNLTPYRDDGKEALKFYTDPSYFFDLWKEKMLQDTKDIMKEKRKHRKEKKDNPNRGNVNPRKIKTRKEEWEKMKMGQEFVESKEKLGTSGYPPTLVYQNGSIGCVENVDASSYPPPPQSDSASSPSPSFSEDNLPPPPAEFSYPVDNQRGSGLAGPKRSSVVSPSHPPPAPPLGSPPGPKPGFAPPPAPPPPPPPMIGIPPPPPPVGFGSPGTPPPPSPPSFPPHPDFAAPPPPPPPPAADYPTLPPPPLSQPTGGAPPPPPPPPPPGPPPPPFTGADGQPAIPPPLSDTTKPKSSLPAVSDARSDLLSAIRQGFQLRRVEEQREQEKRDVVGNDVATILSRRIAVEYSDSEDDSSEFDEDDWSD
B6: MALT1 (protein, UniProt Q9UDY8 2-824, looked up)
Mucosa-associated lymphoid …: SLLGDPLQALPPSAAPTGPLLAPPAGATLNRLREPLLRRLSELLDQAPEGRGWRRLAELAGSRGRLRLSCLDLEQCSLKVLEPEGSPSLCLLKLMGEKGCTVTELSDFLQAMEHTEVLQLLSPPGIKITVNPESKAVLAGQFVKLCCRATGHPFVQYQWFKMNKEIPNGNTSELIFNAVHVKDAGFYVCRVNNNFTFEFSQWSQLDVCDIPESFQRSVDGVSESKLQICVEPTSQKLMPGSTLVLQCVAVGSPIPHYQWFKNELPLTHETKKLYMVPYVDLEHQGTYWCHVYNDRDSQDSKKVEIIIGRTDEAVECTEDELNNLGHPDNKEQTTDQPLAKDKVALLIGNMNYREHPKLKAPLVDVYELTNLLRQLDFKVVSLLDLTEYEMRNAVDEFLLLLDKGVYGLLYYAGHGYENFGNSFMVPVDAPNPYRSENCLCVQNILKLMQEKETGLNVFLLDMCRKRNDYDDTIPILDALKVTANIVFGYATCQGAEAFEIQHSGLANGIFMKFLKDRLLEDKKITVLLDEVAEDMGKCHLTKGKQALEIRSSLSEKRALTDPIQGTEYSAESLVRNLQWAKAHELPESMCLKFDCGVQIQLGFAAEFSNVMIIYTSIVYKPPEIIMCDAYVTDFPLDLDIDPKDANKGTPEETGSYLVSKDLPKHCLYTRLSSLQKLKEHLVFTVCLSYQYSGLEDTVEDKQEVNVGKPLIAKLDMHRGLGRKTCFQTCLMSNGPYQSSAATSGGAGHYHSLQDPFHGVYHSHPGNPSNVTPADSCHCSRTPDAFISSFAHHASCHFSRSNVPVETTDEIPFSFSDRLRISEK
B7: MOBKL3 (protein, UniProt Q96BX8 1-217, looked up)
MOB kinase activator 3A: MSNPFLKQVFNKDKTFRPKRKFEPGTQRFELHKKAQASLNAGLDLRLAVQLPPGEDLNDWVAVHVVDFFNRVNLIYGTISDGCTEQSCPVMSGGPKYEYRWQDEHKFRKPTALSAPRYMDLLMDWIEAQINNEDLFPTNVGTPFPKNFLQTVRKILSRLFRVFVHVYIHHFDRIAQMGSEAHVNTCYKHFYYFVKEFGLIDTKELEPLKEMTARMCH
B8: PRCC (protein, UniProt Q92733 1-491, looked up)
Proline-rich protein PRCC: MSLVAYASSDESEPDEAEPEPEEEEAVAPTSGPALGGLFASLPAPKGPALLPPPPQMLAPAFPPPLLLPPPTGDPRLQPPPPLPFGLGGFPPPPGVSPAEAAGVGEGLGLGLPSPRGPGLNLPPPIGGAGPPLGLPKPKKRKEPVKIAAPELHKGDSDSEEDEPTKKKTILQGSSEGTGLSALLPQPKNLTVKETNRLLLPHAFSRKPSDGSPDTKPSRLASKTKTSSLAPVVGTTTTTPSPSAIKAAAKSAALQVTKQITQEEDDSDEEVAPENFFSLPEKAEPPGVEPYPYPIPTVPEELPPGTEPEPAFQDDAANAPLEFKMAAGSSGAPWMPKPGDDYSYNQFSTYGDANAAGAYYQDYYSGGYYPAQDPALVPPQEIAPDASFIDDEAFKRLQGKRNRGREEINFVEIKGDDQLSGAQQWMTKSLTEEKTMKSFSKKKGEQPTGQQRRKHQITYLIHQAKERELELKNTWSENKLSRRQTQAKYGF

Test system: Hsp90 complexes in Mia-PaCa-2 cell extract
Assay: Nano-LC-MS/MS of PU-beads pull-downs
Type: binding, human
Conditions: protein identified in PU-beads pull-down of Mia-PaCa-2 cell extract; QSTAR-Elite QTof MS
In short: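 They came from PU-bead pull-downs of pre-cleared lysates (control beads, overnight, 4 °C), eluted by boiling in 2% SDS, gel-separated and run by data-dependent nano-ESI QTof MS/MS.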

**Q.** B1 was tested. Which “Number of Assigned Spectra, Mia-Paca 2” value did it give?
**A.** The value was 2.

**Q.** With B2 as the molecule, how does the “Number of Assigned Spectra, Mia-Paca 2” value read?
**A.** The value was 0.

**Q.** B3 was tested. Which “Number of Assigned Spectra, Mia-Paca 2” value did it give?
**A.** The value was 0.

**Q.** For B4, which “Number of Assigned Spectra, Mia-Paca 2” value is on record?
**A.** Its value is 0.

**Q.** B5 was tested. Which “Number of Assigned Spectra, Mia-Paca 2” value did it give?
**A.** Its value is 0.

**Q.** For B6, which “Number of Assigned Spectra, Mia-Paca 2” value is on record?
**A.** The value was 2.

**Q.** With B7 as the molecule, how does the “Number of Assigned Spectra, Mia-Paca 2” value read?
**A.** The value was 1.

**Q.** With B8 as the molecule, how does the “Number of Assigned Spectra, Mia-Paca 2” value read?
**A.** Its value is 0.

Test system: Hsp90 complexes in K562 cell extract
Assay: Nano-LC-MS/MS of PU-beads pull-downs
Type: binding
Conditions: protein identified in PU-beads pull-down of K562 cell extract, Prep 1; QSTAR-Elite QTof MS
In short: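 Proteins were identified by data-dependent nano LC-MS/MS (QTof, ESI) and Mascot searching (p<0.05), then reported as spectral counts and coverage via Scaffold. Inputs were PU-bead versus control-bead pull-downs from lysate pre-cleared with control beads overnight at 4 °C, eluted by boiling in 2% SDS.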

**Q.** Which “Number of Assigned Spectra, K562 Prep 1” value does the source give for B1 here?
**A.** The value was 0.

**Q.** With B2 as the molecule, how does the “Number of Assigned Spectra, K562 Prep 1” value read?
**A.** Its value is 2.

**Q.** Which “Number of Assigned Spectra, K562 Prep 1” value does the source give for B3 here?
**A.** The value was 2.

**Q.** For B4, which “Number of Assigned Spectra, K562 Prep 1” value is on record?
**A.** Its value is 2.

**Q.** B5 was tested. Which “Number of Assigned Spectra, K562 Prep 1” value did it give?
**A.** Its value is 2.

**Q.** Which “Number of Assigned Spectra, K562 Prep 1” value does the source give for B6 here?
**A.** The value was 0.

**Q.** Which “Number of Assigned Spectra, K562 Prep 1” value does the source give for B7 here?
**A.** The value was 0.

**Q.** With B8 as the molecule, how does the “Number of Assigned Spectra, K562 Prep 1” value read?
**A.** Its value is 2.

Same assay, conditions: protein identified in PU-beads pull-down of K562 cell extract, Prep 2; QSTAR-Elite QTof MS

**Q.** With B1 as the molecule, how does the “Number of Assigned Spectra, K562 Prep 2” value read?
**A.** The value was 0.

**Q.** For B2, which “Number of Assigned Spectra, K562 Prep 2” value is on record?
**A.** The value was 0.

**Q.** With B3 as the molecule, how does the “Number of Assigned Spectra, K562 Prep 2” value read?
**A.** Its value is 0.

**Q.** For B4, which “Number of Assigned Spectra, K562 Prep 2” value is on record?
**A.** The value was 0.

**Q.** Which “Number of Assigned Spectra, K562 Prep 2” value does the source give for B5 here?
**A.** The value was 0.

**Q.** How did the “Number of Assigned Spectra, K562 Prep 2” value turn out when B6 was run?
**A.** Its value is 0.

**Q.** With B7 as the molecule, how does the “Number of Assigned Spectra, K562 Prep 2” value read?
**A.** Its value is 0.

**Q.** For B8, which “Number of Assigned Spectra, K562 Prep 2” value is on record?
**A.** The value was 0.
